What is called Kd is the free concentration of one partner at which half of the binding sites on the other are occupied at equilibrium, for simple one-to-one binding.

The source of these data is paper PMC10968536.

Series [1] has as its system HalTzlAGA (synthetic (no organism)). Nature of the series: fluorescence anisotropy. Particulars: Fluorescence anisotropy: 100 nM FAM-TAR in TB buffer, 25 °C, 20 min, ex 480/em 518 nm, one-site fit; CD: 5 µM TAR with 50 µM nucleopeptide (Methods; abstract …). A general note: Polarisation of emitted light reports the rotation of a fluorescent probe.
The subject of series [2] is HalTzlTCCCAG (synthetic (no organism)). Put plainly: fluorescence anisotropy. Particulars: Fluorescence anisotropy: 100 nM FAM-TAR in TB buffer, 25 °C, 20 min, ex 480/em 518 nm, one-site fit; CD: 5 µM TAR with 50 µM nucleopeptide (Methods; abstract …).

Take “CCAGAUCUGAGCCUGGGAGCUCUCUGG [5'-FAM(6)-TAR UCU]”: the dissociation constant (Kd) in series [1] is 256 µM; in series [2], 38.3 µM.
